Where no end group is shown, it is not given here. [ ]: non-standard residue; d: D form. Phe(4-CH2COOH) = N[C@@H](Cc1ccc(CC(=O)O)cc1)C(=O)O; GABA = NCCCC(=O)O
Experiments:
Test in all cases: cell-based or functional assay
[1] = target: envelope gp120 of HIV-1 SF162 (clade B, R5), on virus (HIV-1 strain SF162, UniProt P19550 32-502)
[2] = target: envelope gp120 of HIV-1 96USHIPS4 (clade B, R5/X4), on virus (HIV-1 strain 96USHIPS4)
[3] = target: envelope gp120 of HIV-1 92UG029 (clade A, X4), on virus (HIV-1 strain 92UG029)
[4] = target: envelope gp120 of HIV-1 98IN017 (clade C, X4), on virus (HIV-1 strain 98IN017)
[5] = target: envelope gp120 of HIV-1 92HT599 (clade B, X4), on virus (HIV-1 strain 92HT599)
[6] = target: envelope gp120 of HIV-1 92US723 (clade B, R5/X4), on virus (HIV-1 strain 92US723)
[7] = target: envelope gp120 of HIV-1-LAI (X4-tropic strain), on virus (HIV-1 strain LAI, UniProt P03377 33-516, limits assumed)
[8] = target: envelope gp120 of HIV-1/Ba-L (R5-tropic strain), on virus (HIV-1 strain Ba-L)

B1: P3YSO3 (H-gamma-Abu-S-YSO3-D-YSO3-S-YSO3-D-YSO3-S-YSO3-D-YSO3-S-OH) (peptide)
peptide: SXDXSXDXSXDXS
modifications: N-terminal gamma-aminobutyric acid (NH2-(CH2)3-CO-); sulfotyrosine (YSO3) at the six X positions of S-X-D-X-S-X-D-X-S-X-D-X-S
> 500 nM: ED50, HIV-1 replication in PBMC [1] | ED70, HIV-1 replication in PBMC [1] | ED90, HIV-1 replication in PBMC [1] | ED50, HIV-1 replication in PBMC [2] | ED70, HIV-1 replication in PBMC [2] | ED90, HIV-1 replication in PBMC [2] | ED50, HIV-1 replication in PBMC [3] | ED70, HIV-1 replication in PBMC [3] | ED90, HIV-1 replication in PBMC [3] | ED50, HIV-1 replication in PBMC [4] | ED70, HIV-1 replication in PBMC [4] | ED90, HIV-1 replication in PBMC [4] | ED50, HIV-1 replication in PBMC [5] | ED70, HIV-1 replication in PBMC [5] | ED90, HIV-1 replication in PBMC [5] | ED50, HIV-1 replication in PBMC [6] | ED70, HIV-1 replication in PBMC [6] | ED90, HIV-1 replication in PBMC [6]

EEEEEEEEEEEEE (N-terminal gamma-aminobutyric acid (NH2-(CH2)3-CO-)) [E13 (H-gamma-Abu-(Glu)13-OH)]
> 500 nM: ED50, HIV-1 replication in PBMC [7] | ED70, HIV-1 replication in PBMC [7] | ED90, HIV-1 replication in PBMC [7] | ED50, HIV-1 replication in PBMC [8] | ED70, HIV-1 replication in PBMC [8] | ED90, HIV-1 replication in PBMC [8]

SYDYSYDYSYDYS (N-terminal gamma-aminobutyric acid (NH2-(CH2)3-CO-)) [P3Y (H-gamma-Abu-S-Y-D-Y-S-Y-D-Y-S-Y-D-Y-S-OH)]
> 500 nM: ED50, HIV-1 replication in PBMC [7] | ED70, HIV-1 replication in PBMC [7] | ED90, HIV-1 replication in PBMC [7] | ED50, HIV-1 replication in PBMC [8] | ED70, HIV-1 replication in PBMC [8] | ED90, HIV-1 replication in PBMC [8]

B2: P3pF (H-gamma-Abu-S-pF-D-pF-S-pF-D-pF-S-pF-D-pF-S-OH) (peptide)
peptide: [GABA]S[Phe(4-CH2COOH)]D[Phe(4-CH2COOH)]S[Phe(4-CH2COOH)]D[Phe(4-CH2COOH)]S[Phe(4-CH2COOH)]D[Phe(4-CH2COOH)]S-OH
modifications: N-terminus assumed
SMILES: NCCCC(=O)N[C@@H](CO)C(=O)N[C@@H](Cc1ccc(CC(=O)O)cc1)C(=O)N[C@@H](CC(=O)O)C(=O)N[C@@H](Cc1ccc(CC(=O)O)cc1)C(=O)N[C@@H](CO)C(=O)N[C@@H](Cc1ccc(CC(=O)O)cc1)C(=O)N[C@@H](CC(=O)O)C(=O)N[C@@H](Cc1ccc(CC(=O)O)cc1)C(=O)N[C@@H](CO)C(=O)N[C@@H](Cc1ccc(CC(=O)O)cc1)C(=O)N[C@@H](CC(=O)O)C(=O)N[C@@H](Cc1ccc(CC(=O)O)cc1)C(=O)N[C@@H](CO)C(=O)O
> 500 nM: ED50, HIV-1 replication in PBMC [7] | ED70, HIV-1 replication in PBMC [7] | ED90, HIV-1 replication in PBMC [7] | ED50, HIV-1 replication in PBMC [8] | ED70, HIV-1 replication in PBMC [8] | ED90, HIV-1 replication in PBMC [8]

Reference: US20140107043A1 (INSTITUT PASTEUR, published 2014)
